Here are results for three molecules from US20220119523A1, “TREATMENT OF CUTANEOUS T CELL LYMPHOMA WITH TARGETING OF CD47 PATHWAY” (The Board of Trustees of the Leland Stanford Junior …, priority 2019, published 2022).

Assay [1] has as its system newly diagnosed AML patients 65 years or older. The note with it: 75 mg/m^2 per day SC for 7 consecutive days per 28-day cycle, at least 6 cycles; conventional care regimens 6.5 months; cited from earlier work.
In assay [2] the test system is HH. The assay can be described thus: In vitro phagocytosis assay, HH cell line. Type of assay: cell-based, human. Particulars: HH cells; macrophage from NOD scid gamma mice (NSG); vs IgG4 control antibody; FIG. 2A-2B. The protocol:
(§1) Cancer Cells. HH (CTCL lymphoblast ATCC); HuT78 (Sezary Syndrome CTCL, ATCC); HuT102 (Mycosis Fungoides CTCL, ATCC); and MJ (Mycosis Fungoides CTCL, ATCC) were cultured in RPMI (ThermoFisher S.) (DLD1), EMEM (ThermoFisher S.) (CACO-2, LS174T), McCoy's 5A (ThermoFisher S.) (HT29, HCT116), or Leibovitz's L-15 (ThermoFisher S.) (SW48, SW 620) supplemented with 10% fetal bovine serum (Omega Scientific), 100 U/mL penicillin and 100 μg/mL streptomycin (ThermoFisher S.)
In Vitro Phagocytosis Assay. Peripheral blood mononuclear cells were enriched by density gradient centrifugation and monocytes were purified with anti-CD14 microbeads (Miltenyi) and differentiated to macrophages by culture for 7-10 days in IMDM+GlutaMax (Invitrogen) supplemented with 10% AB-Human Serum (Invitrogen) and 100 U/mL penicillin and 100 μg/mL streptomycin (Invitrogen). Phagocytosis assays were performed by co-culture of 50,000 macrophages with 100,000 CTCL tumor cells for 2 hours, then analyzed using an LSRFortessa cell analyzer with high throughput sampler (BD Biosciences). Antibodies used for treatment included: IgG4 isotype control, anti-CD47—clone magrolimab (Stanford). Macrophages were identified by flow cytometry using anti-CD206 antibody. […] Phagocytosis was evaluated as the percentage of GFP+ macrophages and was normalized to the maximal response by each independent donor against each cell line.

Assay [3] relates to HUT78. As to the kind of experiment: In vitro phagocytosis assay, HUT78 cell line. The class given is cell-based, human. The note with it: HUT78 cells; macrophage from NOD scid gamma mice (NSG); vs IgG4 control antibody; FIG. 2A-2B.
In assay [4] the test system is CTCL tumor cells. The assay can be described thus: In vitro phagocytosis assay, co-culture of macrophages with CTCL tumor cells. Particulars: for phagocytosis (percentage of GFP+ macrophages): 2 hours co-culture. The class given is cell-based, human. On the procedure: as §1
In Vitro Phagocytosis Assay. Peripheral blood mononuclear cells were enriched by density gradient centrifugation and monocytes were purified with anti-CD14 microbeads (Miltenyi) and differentiated to macrophages by culture for 7-10 days in IMDM+GlutaMax (Invitrogen) supplemented with 10% AB-Human Serum (Invitrogen) and 100 U/mL penicillin and 100 μg/mL streptomycin (Invitrogen). Phagocytosis assays were performed by co-culture of 50,000 macrophages with 100,000 CTCL tumor cells for 2 hours, then analyzed using an LSRFortessa cell analyzer with high throughput sampler (BD Biosciences). Antibodies used for treatment included: IgG4 isotype control, anti-CD47—clone magrolimab (Stanford). Macrophages were identified by flow cytometry using anti-CD206 antibody. Dead cells were excluded from the analysis by staining with DAPI (Sigma). Phagocytosis was evaluated as the percentage of GFP+ macrophages and was normalized to the maximal response by each independent donor against each cell line.

In assay [5] the test system is HH tumor cells. As to the kind of experiment: Xenograft tumor model, HH cells in NSG mice. The note with it: 250 μg intraperitoneal every other day, vs PBS. Type of assay: in vivo. On the procedure: (§2) Mice. 6-8 week old NSG (NOD.Cg-Prkdcscid Il2rgtm1Wjl/SzJ) mice were used.
(§3) Xenograft Tumor Models. […] For all treatments, antibodies where administered by intraperitoneal injection (100 μl) as follows: PBS and […] (250 μg) every other day. Tumor volume and survival was monitored.

Assay [6] relates to HuT78 tumor cells. As to the kind of experiment: Xenograft tumor model, HuT78 cells in NSG mice. The class given is in vivo. The note with it: 250 μg intraperitoneal every other day, vs PBS. On the procedure:
as §2, §3

For the molecule `Nc1ncn([C@@H]2O[C@H](CO)[C@@H](O)[C@H]2O)c(=O)n1` [azacitidine], the “Median OS” value in assay [1] is listed as 10.4 months.

B1: Magrolimab: monoclonal antibody designed to block CD47; specifically binds human CD47; humanized 5F9 with IgG4 (antibody, chains of the INN, looked up, V domains shown)
VH: QVQLVQSGAEVKKPGASVKVSCKASGYTFTNYNMHWVRQAPGQRLEWMGTIYPGNDDTSYNQKFKDRVTITADTSASTAYMELSSLRSEDTAVYYCARGGYRAMDYWGQGTLVTVSS
VL: DIVMTQSPLSLPVTPGEPASISCRSSQSIVYSNGNTYLGWYLQKPGQSPQLLIYKVSNRFSGVPDRFSGSGSGTDFTLKISRVEAEDVGVYYCFQGSHVPYTFGQGTKLEIK
With B1, the “phagocytosis (percent of phagocytosis / percent of maximum phagocytosis)” value in assay [2] and in assay [3] was “increased phagocytosis” in each case. The “phagocytosis (percentage of GFP+ macrophages)” value in assay [4] (human macrophages (FIG. 2B)) and in assay [4] (mouse macrophages (FIG. 2A)) was “significant increase in phagocytosis” in each case. Further, the tumor volume entry in assay [5] (FIG. 4A) and in assay [6] (FIG. 5A) was “reduced” throughout. Besides, the survival result in assay [5] (FIG. 4B) and in assay [6] (FIG. 5B) was “improved” each time.

B2: anti-CCR4: antibody that corresponds to mogamulizumab, a defucosylated anti-CCR4 humanized IgG1 antibody binding the N-terminal domain of CCR4 (antibody, chains of the INN, looked up, V domains shown)
VH: EVQLVESGGDLVQPGRSLRLSCAASGFIFSNYGMSWVRQAPGKGLEWVATISSASTYSYYPDSVKGRFTISRDNAKNSLYLQMNSLRVEDTALYYCGRHSDGNFAFGYWGQGTLVTVSS
VL: DVLMTQSPLSLPVTPGEPASISCRSSRNIVHINGDTYLEWYLQKPGQSPQLLIYKVSNRFSGVPDRFSGSGSGTDFTLKISRVEAEDVGVYYCFQGSLLPWTFGQGTKVEIK
For the molecule B2, the “phagocytosis, combination of anti-CD47 and anti-CCR4” value in assay [4] (FIG. 3A-3B, combined antibodies) is on record as “synergizes with anti-CD47 antibody”. Besides, the “phagocytosis, antibody by itself” value in assay [4] (FIG. 3A-3B, single agent) is “little or no effect on phagocytosis”.
